Experimental data published in US20150064134A1.
Numbering of substitutions follows the chain as printed.

Experiments:
Assay in all cases: cell-based or functional assay
ErbB4(h) (human) = ErbB4(h) (human) (UniProt Q15303)
FGFR1(h) (human) = FGFR1(h) (human) (UniProt P11362)
AMPKα1(h) (human) = AMPKα1(h) (human) (UniProt Q13131)
SAPK2a(T106M)(h) (human) = SAPK2a(T106M)(h) (human) (UniProt Q16539)
PAK4(h) (human) = PAK4(h) (human) (UniProt O96013)
PKCα(h) (human) = PKCα(h) (human) (UniProt P17252)
IKKα(h) (human) = target: T1, IKKα(h) (human) (UniProt O15111)
T1 sequence (looked up): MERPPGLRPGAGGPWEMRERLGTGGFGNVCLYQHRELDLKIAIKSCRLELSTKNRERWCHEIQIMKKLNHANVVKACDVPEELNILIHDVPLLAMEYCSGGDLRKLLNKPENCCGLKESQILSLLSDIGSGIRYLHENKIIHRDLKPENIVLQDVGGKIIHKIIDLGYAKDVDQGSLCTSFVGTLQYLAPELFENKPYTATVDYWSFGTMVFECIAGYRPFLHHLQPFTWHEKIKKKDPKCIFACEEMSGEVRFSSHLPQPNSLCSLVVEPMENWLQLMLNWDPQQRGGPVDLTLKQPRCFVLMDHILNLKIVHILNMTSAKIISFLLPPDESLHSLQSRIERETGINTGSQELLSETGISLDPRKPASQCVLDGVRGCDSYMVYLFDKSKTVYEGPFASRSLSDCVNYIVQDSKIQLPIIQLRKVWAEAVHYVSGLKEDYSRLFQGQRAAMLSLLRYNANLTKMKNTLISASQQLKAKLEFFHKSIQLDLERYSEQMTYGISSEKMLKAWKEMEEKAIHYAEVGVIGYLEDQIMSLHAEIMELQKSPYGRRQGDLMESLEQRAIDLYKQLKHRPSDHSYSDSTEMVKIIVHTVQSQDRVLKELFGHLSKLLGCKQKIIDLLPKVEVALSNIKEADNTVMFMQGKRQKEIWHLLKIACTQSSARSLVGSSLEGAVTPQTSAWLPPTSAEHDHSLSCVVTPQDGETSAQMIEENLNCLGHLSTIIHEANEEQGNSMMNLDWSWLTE

VRK2(h) (human) = VRK2(h) (human) (UniProt Q86Y07)
PAK2(h) (human) = PAK2(h) (human) (UniProt Q13177)
ROCK-II(h) (human) = ROCK-II(h) (human) (UniProt O75116)
JNK3(h) (human) = JNK3(h) (human) (UniProt P53779)
CaMKI(h) (human) = CaMKI(h) (human) (UniProt Q14012)
PKA(h) (human) = PKA(h) (human) (UniProt P17612)
Ret(h) (human) = target: T2, Ret(h) (human) (UniProt P07949)
T2 sequence (looked up): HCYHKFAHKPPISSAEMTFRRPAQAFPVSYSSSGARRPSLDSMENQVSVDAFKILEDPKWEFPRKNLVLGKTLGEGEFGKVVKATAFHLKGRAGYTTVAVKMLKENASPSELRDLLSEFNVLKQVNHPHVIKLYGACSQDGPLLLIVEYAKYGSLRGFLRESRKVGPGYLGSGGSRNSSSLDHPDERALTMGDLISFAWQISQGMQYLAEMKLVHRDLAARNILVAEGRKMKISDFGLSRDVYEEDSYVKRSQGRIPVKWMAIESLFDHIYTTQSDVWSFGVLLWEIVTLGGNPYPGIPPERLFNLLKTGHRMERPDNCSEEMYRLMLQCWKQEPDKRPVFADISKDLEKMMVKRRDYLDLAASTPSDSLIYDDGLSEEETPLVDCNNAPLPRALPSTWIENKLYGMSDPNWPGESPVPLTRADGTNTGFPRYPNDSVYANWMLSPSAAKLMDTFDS

CDK5/p25(h) (human) = CDK5/p25(h) (human) (UniProt Q00535)
Fyn(h) (human) = Fyn(h) (human) (UniProt P06241)
PKBβ(h) (human) = PKBβ(h) (human) (UniProt P31751)
AMPKα2(h) (human) = AMPKα2(h) (human) (UniProt P54646)
CLK3(h) (human) = CLK3(h) (human) (UniProt P49761)
Ret(V804L)(h) (human) = target: T3, Ret(V804L)(h) (human) (UniProt P07949)
T3 sequence (looked up): T2 sequence (looked up) with V147L

ZAP-70(h) (human) = ZAP-70(h) (human) (UniProt P43403)
CDK1/cyclinB(h) (human) = CDK1/cyclinB(h) (human) (UniProt P06493)

Sequence of ZAP-70(h) (human) (P43403 whole entry): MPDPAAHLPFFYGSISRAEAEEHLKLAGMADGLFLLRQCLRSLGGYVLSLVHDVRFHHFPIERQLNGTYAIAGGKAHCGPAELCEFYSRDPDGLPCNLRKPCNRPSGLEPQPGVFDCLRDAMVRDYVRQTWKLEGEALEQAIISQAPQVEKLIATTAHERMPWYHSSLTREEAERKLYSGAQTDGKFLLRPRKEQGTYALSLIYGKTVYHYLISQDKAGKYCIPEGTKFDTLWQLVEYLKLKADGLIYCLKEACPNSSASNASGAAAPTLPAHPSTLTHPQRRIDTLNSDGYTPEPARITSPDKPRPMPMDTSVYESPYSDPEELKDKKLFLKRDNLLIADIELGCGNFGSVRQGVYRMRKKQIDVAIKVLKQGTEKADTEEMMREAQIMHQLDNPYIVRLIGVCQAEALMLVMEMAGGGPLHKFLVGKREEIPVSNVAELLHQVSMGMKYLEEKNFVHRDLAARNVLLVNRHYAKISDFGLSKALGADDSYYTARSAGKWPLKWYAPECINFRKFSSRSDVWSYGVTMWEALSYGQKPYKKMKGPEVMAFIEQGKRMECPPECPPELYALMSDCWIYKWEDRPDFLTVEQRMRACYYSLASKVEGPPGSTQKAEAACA
Sequence of VRK2(h) (human) (Q86Y07 whole entry): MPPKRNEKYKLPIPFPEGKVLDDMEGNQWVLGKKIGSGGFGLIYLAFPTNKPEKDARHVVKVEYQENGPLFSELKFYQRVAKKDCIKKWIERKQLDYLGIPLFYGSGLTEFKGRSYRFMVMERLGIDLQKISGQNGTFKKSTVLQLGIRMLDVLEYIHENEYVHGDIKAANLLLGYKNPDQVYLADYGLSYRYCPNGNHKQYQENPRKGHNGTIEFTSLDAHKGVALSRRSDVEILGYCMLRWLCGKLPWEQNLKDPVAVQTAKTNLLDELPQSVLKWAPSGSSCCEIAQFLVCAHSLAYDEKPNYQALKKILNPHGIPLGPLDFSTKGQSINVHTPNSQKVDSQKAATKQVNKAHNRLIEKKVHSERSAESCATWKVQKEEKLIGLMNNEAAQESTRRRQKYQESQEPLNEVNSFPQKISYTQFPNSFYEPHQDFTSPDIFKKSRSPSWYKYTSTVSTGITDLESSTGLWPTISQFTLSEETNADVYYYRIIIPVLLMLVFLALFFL
Sequence of SAPK2a(T106M)(h) (human) (Q16539 whole entry T106M): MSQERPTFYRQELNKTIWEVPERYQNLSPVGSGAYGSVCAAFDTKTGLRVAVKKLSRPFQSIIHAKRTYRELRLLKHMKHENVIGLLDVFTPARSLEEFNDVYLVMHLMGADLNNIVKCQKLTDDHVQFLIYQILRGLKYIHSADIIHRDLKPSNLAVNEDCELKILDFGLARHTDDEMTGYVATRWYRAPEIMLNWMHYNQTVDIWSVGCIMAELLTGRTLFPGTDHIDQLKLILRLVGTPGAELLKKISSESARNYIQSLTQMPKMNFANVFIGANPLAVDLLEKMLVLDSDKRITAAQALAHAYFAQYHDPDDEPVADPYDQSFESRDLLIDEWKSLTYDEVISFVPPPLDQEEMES
Sequence of ErbB4(h) (human) (Q15303 706-991 limits assumed): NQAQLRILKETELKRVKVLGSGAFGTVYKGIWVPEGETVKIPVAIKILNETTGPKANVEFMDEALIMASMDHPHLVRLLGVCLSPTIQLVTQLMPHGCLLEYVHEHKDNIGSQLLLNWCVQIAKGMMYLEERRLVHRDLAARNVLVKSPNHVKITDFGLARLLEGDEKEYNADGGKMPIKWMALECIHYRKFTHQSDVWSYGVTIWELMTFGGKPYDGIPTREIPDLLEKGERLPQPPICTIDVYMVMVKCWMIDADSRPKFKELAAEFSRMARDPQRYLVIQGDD
Sequence of PKBβ(h) (human) (P31751 whole entry): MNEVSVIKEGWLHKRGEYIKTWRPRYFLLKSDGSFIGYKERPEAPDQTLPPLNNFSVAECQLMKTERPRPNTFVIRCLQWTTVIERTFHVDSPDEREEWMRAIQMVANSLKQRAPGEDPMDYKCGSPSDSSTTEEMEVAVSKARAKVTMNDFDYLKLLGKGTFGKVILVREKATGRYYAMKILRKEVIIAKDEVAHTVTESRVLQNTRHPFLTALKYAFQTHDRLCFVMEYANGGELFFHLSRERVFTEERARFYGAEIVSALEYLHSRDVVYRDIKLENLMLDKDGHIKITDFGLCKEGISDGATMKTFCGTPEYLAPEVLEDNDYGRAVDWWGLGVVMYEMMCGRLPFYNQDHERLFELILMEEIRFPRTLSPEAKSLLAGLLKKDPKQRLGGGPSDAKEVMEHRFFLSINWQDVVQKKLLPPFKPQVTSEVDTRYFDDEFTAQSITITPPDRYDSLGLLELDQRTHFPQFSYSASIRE
Sequence of PAK2(h) (human) (Q13177 whole entry): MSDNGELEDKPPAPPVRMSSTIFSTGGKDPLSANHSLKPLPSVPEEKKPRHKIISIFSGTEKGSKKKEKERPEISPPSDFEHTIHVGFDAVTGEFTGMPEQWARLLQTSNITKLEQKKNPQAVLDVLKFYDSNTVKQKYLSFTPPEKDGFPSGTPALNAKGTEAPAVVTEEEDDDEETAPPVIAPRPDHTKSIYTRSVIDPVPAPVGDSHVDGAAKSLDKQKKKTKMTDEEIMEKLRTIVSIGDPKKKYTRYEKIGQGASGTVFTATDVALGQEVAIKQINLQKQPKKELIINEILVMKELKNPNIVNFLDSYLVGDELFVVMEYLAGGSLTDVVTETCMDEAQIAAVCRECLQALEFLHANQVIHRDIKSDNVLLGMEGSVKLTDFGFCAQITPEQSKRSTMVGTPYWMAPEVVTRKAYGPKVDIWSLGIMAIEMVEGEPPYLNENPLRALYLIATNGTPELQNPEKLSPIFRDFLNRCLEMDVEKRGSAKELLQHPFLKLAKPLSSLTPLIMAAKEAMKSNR
Sequence of FGFR1(h) (human) (P11362 456-765 limits assumed): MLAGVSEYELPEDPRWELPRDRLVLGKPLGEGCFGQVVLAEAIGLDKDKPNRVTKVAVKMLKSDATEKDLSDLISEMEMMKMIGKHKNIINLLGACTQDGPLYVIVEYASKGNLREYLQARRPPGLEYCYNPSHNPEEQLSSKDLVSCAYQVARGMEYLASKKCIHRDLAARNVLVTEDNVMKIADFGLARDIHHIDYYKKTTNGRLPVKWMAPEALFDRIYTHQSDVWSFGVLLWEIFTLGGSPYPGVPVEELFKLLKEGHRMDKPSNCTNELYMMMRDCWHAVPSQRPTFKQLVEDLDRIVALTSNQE

% activity at 100 µM (ErbB4(h) (human)) | % activity at 100 µM (FGFR1(h) (human)) | % activity at 100 µM (AMPKα1(h) (human)) | % activity at 100 µM (SAPK2a(T106M)(h) (human)) | % activity at 100 µM (PAK4(h) (human)) | % activity at 100 µM (PKCα(h) (human)) | % activity at 100 µM (IKKα(h) (human)) | % activity at 100 µM (VRK2(h) (human)) | % activity at 100 µM (PAK2(h) (human)) | % activity at 100 µM (ROCK-II(h) (human)) | % activity at 100 µM (JNK3(h) (human)) | % activity at 100 µM (CaMKI(h) (human)) | % activity at 100 µM (PKA(h) (human)) | % activity at 100 µM (Ret(h) (human)) | % activity at 100 µM (CDK5/p25(h) (human)) | % activity at 100 µM (Fyn(h) (human)) | % activity at 100 µM (PKBβ(h) (human)) | % activity at 100 µM (AMPKα2(h) (human)) | % activity at 100 µM (CLK3(h) (human)) | % activity at 100 µM (Ret(V804L)(h) (human)) | further results | Substance
0% | 59% | 87% | 99% | 89% | 86% | 87% | 185% | 59% | 77% | 70% | 0% | 119% | 145% | 92% | 54% | 98% | 58% | 84% | 73% | % activity at 100 µM (ZAP-70(h) (human)): 33%; % activity at 100 µM (CDK1/cyclinB(h) (human)): 74% | MMI-0400 (peptide)
40% | 55% | 71% | 97% | 94% | 89% | 93% | 161% | 65% | 74% | 89% | 1% | 119% | 140% | 89% | 74% | 84% | 54% | 61% | 79% | % activity at 100 µM (ZAP-70(h) (human)): 75%; % activity at 100 µM (CDK1/cyclinB(h) (human)): 73% | MMI-0300 (peptide)
2% | 18% | 35% | 32% | 86% | 3% | 50% | 169% | 44% | 2% | 171% | -1% | 118% | 174% | 66% | 83% | 21% | 9% | 76% | 20% | % activity at 100 µM (ZAP-70(h) (human)): 1%; % activity at 100 µM (CDK1/cyclinB(h) (human)): 57% | MMI-0500 (peptide)
